Test results published in IntAct's records for PubMed 16461910.

Experiments:
[1] = target: dpo3b_bacsu dnaN (UniProt P05649)
[2] = target: acub_bacsu acuB (UniProt P39066)
[3] = target: dnaa_bacsu dnaA (UniProt P05648)
[4] = target: tlpa_bacsu tlpA (UniProt P39216)
tlpa_bacsu tlpA, sequence (P39216 whole entry): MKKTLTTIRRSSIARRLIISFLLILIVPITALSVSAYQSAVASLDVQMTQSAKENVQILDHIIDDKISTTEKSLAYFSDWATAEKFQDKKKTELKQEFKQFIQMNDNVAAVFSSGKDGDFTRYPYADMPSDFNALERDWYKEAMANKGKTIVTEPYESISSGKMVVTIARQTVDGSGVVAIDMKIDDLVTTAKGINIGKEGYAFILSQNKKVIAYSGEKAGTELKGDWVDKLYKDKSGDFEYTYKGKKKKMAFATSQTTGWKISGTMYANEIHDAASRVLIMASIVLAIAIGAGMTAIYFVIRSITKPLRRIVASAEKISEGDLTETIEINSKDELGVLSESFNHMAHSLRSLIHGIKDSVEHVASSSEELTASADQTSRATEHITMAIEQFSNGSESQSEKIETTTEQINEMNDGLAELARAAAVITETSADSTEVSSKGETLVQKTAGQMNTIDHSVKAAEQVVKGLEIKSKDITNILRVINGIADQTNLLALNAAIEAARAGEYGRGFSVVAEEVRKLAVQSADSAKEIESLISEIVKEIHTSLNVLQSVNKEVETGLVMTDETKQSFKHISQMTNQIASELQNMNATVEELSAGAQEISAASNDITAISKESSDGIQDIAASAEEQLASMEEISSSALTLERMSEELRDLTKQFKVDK

dnaa_bacsu dnaA, sequence (P05648 whole entry): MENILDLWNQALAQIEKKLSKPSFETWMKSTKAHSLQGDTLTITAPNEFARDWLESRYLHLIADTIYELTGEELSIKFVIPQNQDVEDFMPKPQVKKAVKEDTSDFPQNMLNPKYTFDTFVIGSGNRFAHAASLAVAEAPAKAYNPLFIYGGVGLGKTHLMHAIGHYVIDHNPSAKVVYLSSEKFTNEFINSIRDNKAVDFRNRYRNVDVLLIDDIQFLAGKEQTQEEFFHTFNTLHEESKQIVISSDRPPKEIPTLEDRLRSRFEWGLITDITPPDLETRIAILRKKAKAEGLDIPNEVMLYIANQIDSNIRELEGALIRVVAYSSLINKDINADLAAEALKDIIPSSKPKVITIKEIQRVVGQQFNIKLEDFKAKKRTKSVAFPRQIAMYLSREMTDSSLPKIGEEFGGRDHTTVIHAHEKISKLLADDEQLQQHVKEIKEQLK
dpo3b_bacsu dnaN, sequence (P05649 whole entry): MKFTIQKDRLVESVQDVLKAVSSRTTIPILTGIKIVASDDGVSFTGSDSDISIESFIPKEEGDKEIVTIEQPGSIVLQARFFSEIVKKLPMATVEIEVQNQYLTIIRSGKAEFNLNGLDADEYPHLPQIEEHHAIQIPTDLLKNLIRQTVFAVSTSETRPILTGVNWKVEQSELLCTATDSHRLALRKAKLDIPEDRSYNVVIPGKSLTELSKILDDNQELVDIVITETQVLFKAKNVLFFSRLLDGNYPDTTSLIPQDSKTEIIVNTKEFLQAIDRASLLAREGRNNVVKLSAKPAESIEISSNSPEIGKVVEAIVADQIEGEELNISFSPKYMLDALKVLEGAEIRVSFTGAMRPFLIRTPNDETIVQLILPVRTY
acub_bacsu acuB, sequence (P39066 whole entry): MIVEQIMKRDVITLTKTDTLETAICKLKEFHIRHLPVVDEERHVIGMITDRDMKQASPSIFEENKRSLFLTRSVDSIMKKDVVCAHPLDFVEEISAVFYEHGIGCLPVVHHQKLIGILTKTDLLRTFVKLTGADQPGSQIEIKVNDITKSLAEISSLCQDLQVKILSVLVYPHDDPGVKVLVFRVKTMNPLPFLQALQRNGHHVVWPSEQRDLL

Substance	effect of a mutation on the interaction [1]	effect of a mutation on the interaction [2]	effect of a mutation on the interaction [3]	effect of a mutation on the interaction [4]
Replication initiation control protein YabA (Bacillus subtilis), P37542 L27A	disrupting interaction strength	disrupting interaction strength	disrupting interaction strength	disrupting interaction strength
Replication initiation control protein YabA (Bacillus subtilis), P37542 L86P			disrupting interaction strength	
Replication initiation control protein YabA (Bacillus subtilis), P37542 V99A	disrupting interaction strength			

Results, then the substance that gave them:

effect of a mutation on the interaction [1]	effect of a mutation on the interaction [2]	effect of a mutation on the interaction [3]	effect of a mutation on the interaction [4]	Substance
disrupting interaction strength				Replication initiation control protein YabA (Bacillus subtilis), P37542 L110P
		disrupting interaction strength		Replication initiation control protein YabA (Bacillus subtilis), P37542 N85D
